Measurements from the supplement of paper PMC11316812.
± gives the standard deviation of the averaged measurements.

Key:
MCF7 = assay: percentage of EdU-negative (G0-arrested) nuclei per well, 72 h; higher = more G0 arrest; conditions: reference: sequence is the full UniProt precursor, the tested protein was the secreted form or ectodomain
hTERT-HMEC = assay: as above; conditions: reference: sequence is the full UniProt precursor, the tested protein was the secreted form or ectodomain
[1] = protein concentration 0.0217075 µM
[2] = protein concentration 0.217075 µM
[3] = protein concentration 0.00825 µM
[4] = protein concentration 0.0825 µM
[5] = protein concentration 0.0225 µM
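Also: secreted proteins added to cultured cells, EdU pulse at the end, nuclei found by Hoechst imaging, EdU status from nuclear versus surrounding ring intensity ratio, PBS as neutral control.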

MLVDGPSERPALCFLLLAVAMSFFGSALSIDETRAHLLLKEKMMRLGGRLVLNTKEELANERLMTLKIAEMKEAMRTLIFPPSMHFFQAKHLIERSQVFNILRMMPKGAALHLHDIGIVTMDWLVRNVTYRPHCHICFTPRGIMQFRFAHPTPRPSEKCSKWILLEDYRKRVQNVTEFDDSLLRNFTLVTQHPEVIYTNQNVVWSKFETIFFTISGLIHYAPVFRDYVFRSMQEFYEDNVLYMEIRARLLPVYELSGEHHDEEWSVKTYQEVAQKFVETHPEFIGIKIIYSDHRSKDVAVIAESIRMAMGLRIKFPTVVAGFDLVGHEDTGHSLHDYKEALMIPAKDGVKLPYFFHAGETDWQGTSIDRNILDALMLNTTRIGHGFALSKHPAVRTYSWKKDIPIEVCPISNQVLKLVSDLRNHPVATLMATGHPMVISSDDPAMFGAKGLSYDFYEVFMGIGGMKADLRTLKQLAMNSIKYSTLLESEKNTFMEIWKKRWDKFIADVATK [Q9NZK5]
percentage of EdU-negative (MCF7; [1]): 24.5 ± 1.2%
percentage of EdU-negative (MCF7; [2]): 28.4 ± 1.5%
percentage of EdU-negative (hTERT-HMEC; [1]): 4.31 ± 0.15%
percentage of EdU-negative (hTERT-HMEC; [2]): 7.86 ± 0.091%

MLVGQGAGPLGPAVVTAAVVLLLSGVGPAHGSEDIVVGCGGFVKSDVEINYSLIEIKLYTKHGTLKYQTDCAPNNGYFMIPLYDKGDFILKIEPPLGWSFEPTTVELHVDGVSDICTKGGDINFVFTGFSVNGKVLSKGQPLGPAGVQVSLRNTGTEAKIQSTVTQPGGKFAFFKVLPGDYEILATHPTWALKEASTTVRVTNSNANAASPLIVAGYNVSGSVRSDGEPMKGVKFLLFSSLVTKEDVLGCNVSPVPGFQPQDESLVYLCYTVSREDGSFSFYSLPSGGYTVIPFYRGERITFDVAPSRLDFTVEHDSLKIEPVFHVMGFSVTGRVLNGPEGDGVPEAVVTLNNQIKVKTKADGSFRLENITTGTYTIHAQKEHLYFETVTIKIAPNTPQLADIIATGFSVCGQISIIRFPDTVKQMNKYKVVLSSQDKDKSLVTVETDAHGSFCFKAKPGTYKVQVMVPEAETRAGLTLKPQTFPLTVTNRPMMDVAFVQFLASVSGKVSCLDTCGDLLVTLQSLSRQGEKRSLQLSGKVNAMTFTFDNVLPGKYKISIMHEDWCWKNKSLEVEVLEDDMSAVEFRQTGYMLRCSLSHAITLEFYQDGNGRENVGIYNLSKGVNRFCLSKPGVYKVTPRSCHRFEQAFYTYDTSSPSILTLTAIRHHVLGTITTDKMMDVTVTIKSSIDSEPALVLGPLKSVQELRREQQLAEIEARRQEREKNGNEEGEERMTKPPVQEMVDELQGPFSYDFSYWARSGEKITVTPSSKELLFYPPSMEAVVSGESCPGKLIEIHGKAGLFLEGQIHPELEGVEIVISEKGASSPLITVFTDDKGAYSVGPLHSDLEYTVTSQKEGYVLTAVEGTIGDFKAYALAGVSFEIKAEDDQPLPGVLLSLSGGLFRSNLLTQDNGILTFSNLSPGQYYFKPMMKEFRFEPSSQMIEVQEGQNLKITITGYRTAYSCYGTVSSLNGEPEQGVAMEAVGQNDCSIYGEDTVTDEEGKFRLRGLLPGCVYHVQLKAEGNDHIERALPHHRVIEVGNNDIDDVNIIVFRQINQFDLSGNVITSSEYLPTLWVKLYKSENLDNPIQTVSLGQSLFFHFPPLLRDGENYVVLLDSTLPRSQYDYILPQVSFTAVGYHKHITLIFNPTRKLPEQDIAQGSYIALPLTLLVLLAGYNHDKLIPLLLQLTSRLQGVRALGQAASDNSGPEDAKRQAKKQKTRRT
percentage of EdU-negative (MCF7; [3]): 22.7 ± 1.3%
percentage of EdU-negative (MCF7; [4]): 26.29 ± 0.074%
percentage of EdU-negative (hTERT-HMEC; [3]): 5.23 ± 0.14%
percentage of EdU-negative (hTERT-HMEC; [4]): 7.14 ± 1.1%

MLVRRGARAGPRMPRGWTALCLLSLLPSGFMSLDNNGTATPELPTQGTFSNVSTNVSYQETTTPSTLGSTSLHPVSQHGNEATTNITETTVKFTSTSVITSVYGNTNSSVQSQTSVISTVFTTPANVSTPETTLKPSLSPGNVSDLSTTSTSLATSPTKPYTSSSPILSDIKAEIKCSGIREVKLTQGICLEQNKTSSCAEFKKDRGEGLARVLCGEEQADADAGAQVCSLLLAQSEVRPQCLLLVLANRTEISSKLQLMKKHQSDLKKLGILDFTEQDVASHQSYSQKTLIALVTSGALLAVLGITGYFLMNRRSWSPTGERLGEDPYYTENGGGQGYSSGPGTSPEAQGKASVNRGAQENGTGQATSRNGHSARQHVVADTEL
percentage of EdU-negative (MCF7; [5]): 26.6 ± 1.4%
percentage of EdU-negative (MCF7; protein concentration 0.225 µM): 27.23 ± 0.19%
percentage of EdU-negative (hTERT-HMEC; [5]): 5.14 ± 0.39%
percentage of EdU-negative (hTERT-HMEC; protein concentration 0.225 µM): 5.89 ± 0.59%

MLWLFQSLLFVFCFGPGNVVSQSSLTPLMVNGILGESVTLPLEFPAGEKVNFITWLFNETSLAFIVPHETKSPEIHVTNPKQGKRLNFTQSYSLQLSNLKMEDTGSYRAQISTKTSAKLSSYTLRILRQLRNIQVTNHSQLFQNMTCELHLTCSVEDADDNVSFRWEALGNTLSSQPNLTVSWDPRISSEQDYTCIAENAVSNLSFSVSAQKLCEDVKIQYTDTKMILFMVSGICIVFGFIILLLLVLRKRRDSLSLSTQRTQGPAESARNLEYVSVSPTNNTVYASVTHSNRETEIWTPRENDTITIYSTINHSKESKPTFSRATALDNVV [Q96DU3]
percentage of EdU-negative (MCF7; [5]): 24.69 ± 0.12%
percentage of EdU-negative (MCF7; protein concentration 0.225 µM): 25 ± 1.3%
percentage of EdU-negative (hTERT-HMEC; [5]): 4.5 ± 0.13%
percentage of EdU-negative (hTERT-HMEC; protein concentration 0.225 µM): 5.94 ± 1.1%

MLWRQLIYWQLLALFFLPFCLCQDEYMESPQTGGLPPDCSKCCHGDYSFRGYQGPPGPPGPPGIPGNHGNNGNNGATGHEGAKGEKGDKGDLGPRGERGQHGPKGEKGYPGIPPELQIAFMASLATHFSNQNSGIIFSSVETNIGNFFDVMTGRFGAPVSGVYFFTFSMMKHEDVEEVYVYLMHNGNTVFSMYSYEMKGKSDTSSNHAVLKLAKGDEVWLRMGNGALHGDHQRFSTFAGFLLFETK [Q9BXJ4]
percentage of EdU-negative (MCF7; [5]): 24.8 ± 1.7%
percentage of EdU-negative (MCF7; protein concentration 0.225 µM): 26.38 ± 0.15%
percentage of EdU-negative (hTERT-HMEC; [5]): 5.75 ± 0.2%
percentage of EdU-negative (hTERT-HMEC; protein concentration 0.225 µM): 5.41 ± 0.19%
